{
  "source": "patent US20080026996A1",
  "about": "“Selective Vpac2 Receptor Reptide Agonists” (ELI LILLY AND COMPANY, priority 2004, published 2008)",
  "note": "Where no end group is shown, it is not given here. [ ]: non-standard residue; d: D form. The star is where a group is joined. Orn = NCCC[C@H](N)C(=O)O; Hexanoyl = CCCCCC(=O)*; Aib = CC(C)(N)C(=O)O",
  "data": [
    {"target": "T1, human VPAC2 receptor (human, UniProt P41587 24-438)", "T1 sequence (looked up)": "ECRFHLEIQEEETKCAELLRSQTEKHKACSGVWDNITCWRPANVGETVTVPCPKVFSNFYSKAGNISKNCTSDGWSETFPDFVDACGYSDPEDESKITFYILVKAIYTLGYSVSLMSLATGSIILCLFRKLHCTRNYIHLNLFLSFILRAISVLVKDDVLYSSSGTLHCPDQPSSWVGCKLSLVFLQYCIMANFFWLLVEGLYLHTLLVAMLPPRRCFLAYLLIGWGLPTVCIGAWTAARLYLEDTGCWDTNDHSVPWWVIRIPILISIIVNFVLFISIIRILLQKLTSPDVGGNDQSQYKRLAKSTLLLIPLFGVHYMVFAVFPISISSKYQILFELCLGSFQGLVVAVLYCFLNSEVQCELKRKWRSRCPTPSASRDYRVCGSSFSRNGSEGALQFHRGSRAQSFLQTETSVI", "test": "cell-based or functional assay", "units": {"EC50 cAMP, Alpha Screen": "nM", "EC50 cAMP, DiscoveRx": "nM"}, "values": [
      {"binder": "Hexanoyl-HSDAVFTDNYTRLR[Aib]QVAA[Aib]KYLQSIK[Aib]GGPSSGAPPPS (ends and bridges not checked)", "note": "[P355]", "EC50 cAMP, Alpha Screen": 0.1},
      {"binder": "Hexanoyl-HSDAVFTDNYTRLR[Aib]QVAA[Aib]KYLQSIKQGGPSSGAPPPS (ends and bridges not checked)", "note": "[P297]", "EC50 cAMP, Alpha Screen": 0.36},
      {"binder": "Hexanoyl-HSDAVFTDNYTRLQ[Aib]QVAAKKYLQSIKNKRYGGPSSGAPPPS (ends and bridges not checked)", "note": "[P258]", "EC50 cAMP, Alpha Screen": 0.17},
      {"binder": "Hexanoyl-HSDAVFTDNYTRLR[Aib]QVAALKYLQSIKNKRYGGPSSGAPPPS (ends and bridges not checked)", "note": "[P265]", "EC50 cAMP, Alpha Screen": 0.21},
      {"binder": "Hexanoyl-HSDAVFTDNYTRLR[Aib]QVAAVKYLQSIKNKRYGGPSSGAPPPS (ends and bridges not checked)", "note": "[P262]", "EC50 cAMP, Alpha Screen": 0.24},
      {"binder": "Hexanoyl-HSDAVFTDNYTRLR[Aib]QVAAAKYLQSIKNKRYGGPSSGAPPPS (ends and bridges not checked)", "note": "[P263]", "EC50 cAMP, Alpha Screen": 0.07},
      {"binder": "HSDAVFTDNYTXLRXQLAAXKYLQSIXNXGGPSSGAPPPS (N-terminal hexanoyl (C6); Orn at 12, 27, 29; Aib at 15, 20)", "note": "[P364]", "EC50 cAMP, Alpha Screen": 0.11},
      {"binder": "HSDAVFTDNYTXLRXQIAAXKYLQSIXNXGGPSSGAPPPS (N-terminal hexanoyl (C6); Orn at 12, 27, 29; Aib at 15, 20)", "note": "[P365]", "EC50 cAMP, Alpha Screen": 0.13},
      {"binder": "Hexanoyl-HSDAVFTDNYTRLR[Aib]QVAA[Aib]KYLQSIKKGGPSSGAPPPS (ends and bridges not checked)", "note": "[P351]", "EC50 cAMP, Alpha Screen": 0.11},
      {"binder": "Hexanoyl-HSDAVFTDNYTRLR[Aib]QVAAK[Aib]YLQSIKQKGGPSSGAPPPS (ends and bridges not checked)", "note": "[P295]", "EC50 cAMP, Alpha Screen": 0.39},
      {"binder": "Hexanoyl-HSDAVFTDNYTRLQKQVAA[Aib]KYLQSIKNKRYGGPSSGAPPPS (ends and bridges not checked)", "note": "[P250]", "EC50 cAMP, Alpha Screen": 0.18},
      {"binder": "Hexanoyl-HSDAVFTDNYTRL[Orn][Aib]QVAA[Aib]KYLQSIKNKRYGGPSSGAPPPS (ends and bridges not checked)", "note": "[P319]", "EC50 cAMP, Alpha Screen": 0.26},
      {"binder": "Hexanoyl-HSDAVFTDNYTRLRKQVAAKKYTQSIKNKRYGGPSSGAPPPS", "note": "[P232]", "EC50 cAMP, Alpha Screen": 1.94},
      {"binder": "Hexanoyl-HSDAVFTDNYTRLR[Aib]QVAA[Aib]KYLQSIKPKGGPSSGAPPPS (ends and bridges not checked)", "note": "[P350]", "EC50 cAMP, Alpha Screen": 0.13},
      {"binder": "Hexanoyl-HSDAVFTDNYTRLRKQVAAKKY[Aib]QSIKNKRYGGPSSGAPPPS (ends and bridges not checked)", "note": "[P236]", "EC50 cAMP, Alpha Screen": 0.12},
      {"binder": "Hexanoyl-HSDAVFTDNYTRL[Aib]KQVAA[Aib]KYLQSIKQKGGPSSGAPPPS (ends and bridges not checked)", "note": "[P293]", "EC50 cAMP, Alpha Screen": 1.89},
      {"binder": "HSDAVFTDNYTRLRKQVAAKKYLQSIKRGGPSSGAPPPS", "note": "[P82]", "EC50 cAMP, Alpha Screen": 15.2},
      {"binder": "HSDAVFTDNYTRLRXQVAAXKYLQSIKXGGPSSGAPPPS (N-terminal hexanoyl (C6); Aib at 15, 20; hR at 28)", "note": "[P354]", "EC50 cAMP, Alpha Screen": 0.14},
      {"binder": "HSDAVFTDNYTRLRKQVAAKKYLQSIKKGGPSSGAPPPS", "note": "[P85]", "EC50 cAMP, Alpha Screen": 22.2},
      {"binder": "HSDAVFTDNYTRLRKQVAAKKYLQSIKNGRPSSGAPPPS", "note": "[P92]", "EC50 cAMP, Alpha Screen": 10.2, "EC50 cAMP, DiscoveRx": 8.2},
      {"binder": "Hexanoyl-HSDAVFTDNYTRLRKQVAAKKYLQSIKNGRPSSGAPPPS", "note": "[P271]", "EC50 cAMP, Alpha Screen": 0.12},
      {"binder": "Hexanoyl-HSDAVFTDNYTRLR[Orn]QVAAKKYLQSIKNKRYGGPSSGAPPPS (ends and bridges not checked)", "note": "[P307]", "EC50 cAMP, Alpha Screen": 0.32},
      {"binder": "Hexanoyl-HSDAVFTDNYTRLR[Aib]QVAA[Aib]KYLQSI[dK][dK]GGPSSGAPPPS (ends and bridges not checked)", "note": "[P353]", "EC50 cAMP, Alpha Screen": 0.18},
      {"binder": "Hexanoyl-HSDAVFTDNYTRL[Aib]KQVAAKQYLQSIKNKRYGGPSSGAPPPS (ends and bridges not checked)", "note": "[P249]", "EC50 cAMP, Alpha Screen": 0.93},
      {"binder": "Hexanoyl-HSDAVFTDNYTRL[Aib]KQVAAAKYLQSIKNKRYGGPSSGAPPPS (ends and bridges not checked)", "note": "[P260]", "EC50 cAMP, Alpha Screen": 0.83},
      {"binder": "Hexanoyl-HSDAVFTDNYTRL[Aib]KQVAAVKYLQSIKNKRYGGPSSGAPPPS (ends and bridges not checked)", "note": "[P269]", "EC50 cAMP, Alpha Screen": 1.02},
      {"binder": "Hexanoyl-HSDAVFTDNYTRL[Aib]KQVAALKYLQSIKNKRYGGPSSGAPPPS (ends and bridges not checked)", "note": "[P259]", "EC50 cAMP, Alpha Screen": 1.08},
      {"binder": "Hexanoyl-HSDAVFTDNYTRL[Aib]KQVAA[Aib]KYLQSIKQGGPSSGAPPPS (ends and bridges not checked)", "note": "[P296]", "EC50 cAMP, Alpha Screen": 6.69},
      {"binder": "Hexanoyl-HSDAVFTDNYT[Aib]LR[Aib]QVAA[Aib]KYLQSIKNKRYGGPSSGAPPPS (ends and bridges not checked)", "note": "[P345]", "EC50 cAMP, Alpha Screen": 1.17},
      {"binder": "Hexanoyl-HSDAVFTDNYTALR[Aib]QVAA[Aib]KYLQSI[Orn]N[Orn]GGPSSGAPPPS", "note": "[P366]", "EC50 cAMP, Alpha Screen": 2.6},
      {"binder": "HSDAVFTDNYTRLXXQVAAXKYLQSIKNKRYGGPSSGAPPPS (N-terminal hexanoyl (C6); hR at 14; Aib at 15, 20)", "note": "[P316]", "EC50 cAMP, Alpha Screen": 0.3},
      {"binder": "HSDAVFTDNYTRLXXQVAAXKYLQSIKNKRYGGPSSGAPPPS (N-terminal hexanoyl (C6); Cit at 14; Aib at 15, 20)", "note": "[P320]", "EC50 cAMP, Alpha Screen": 0.49},
      {"binder": "Hexanoyl-HSDAVFTDNYTRLA[Aib]QVAA[Aib]KYLQSIKNKRYGGPSSGAPPPS (ends and bridges not checked)", "note": "[P301]", "EC50 cAMP, Alpha Screen": 0.89},
      {"binder": "Hexanoyl-HSDAVFTDNYTRLQ[Aib]QVAA[Aib]KYLQSIKNKRYGGPSSGAPPPS (ends and bridges not checked)", "note": "[P302]", "EC50 cAMP, Alpha Screen": 0.45},
      {"binder": "Hexanoyl-HSDAVFTDNYTRLL[Aib]QVAA[Aib]KYLQSIKNKRYGGPSSGAPPPS (ends and bridges not checked)", "note": "[P317]", "EC50 cAMP, Alpha Screen": 0.36},
      {"binder": "Hexanoyl-HSDAVFTDNYTRLR[Aib]QVAA[Aib]AYLQSIKNKRYGGPSSGAPPPS (ends and bridges not checked)", "note": "[P341]", "EC50 cAMP, Alpha Screen": 0.38},
      {"binder": "Hexanoyl-HSDAVFTDNYTRLR[Aib]QAAA[Aib]KYLQSIKNKRYGGPSSGAPPPS (ends and bridges not checked)", "note": "[P324]", "EC50 cAMP, Alpha Screen": 0.23},
      {"binder": "Hexanoyl-HSDAVFTDNYTRLRKQVAAKKALQSIKNKRYGGPSSGAPPPS", "note": "[P229]", "EC50 cAMP, Alpha Screen": 2.6},
      {"binder": "Hexanoyl-HSDAVFTDNYTRLR[Aib]QVAAK[Aib]YLQSIKQGGPSSGAPPPS (ends and bridges not checked)", "note": "[P298]", "EC50 cAMP, Alpha Screen": 0.5},
      {"binder": "Hexanoyl-HSDAVFTDNYTRLR[Aib]QVAA[Aib]KYLQSIKQKGGPSSGAPPPS (ends and bridges not checked)", "note": "[P294]", "EC50 cAMP, Alpha Screen": 0.24},
      {"binder": "Hexanoyl-HSDAVFTDNYTRLR[Aib]QVAA[Aib]KYLQSIK[Aib]KGGPSSGAPPPS (ends and bridges not checked)", "note": "[P349]", "EC50 cAMP, Alpha Screen": 0.08}
    ]}
  ]
}
